Measured values published in publication PMC9482650, “Quantitative fragmentomics allow affinity mapping of interactomes” (Nature Communications, 2022).

T1: LIN7C, Q9NUP9
T1 sequence (Q9NUP9 88-185, limits assumed, looked up): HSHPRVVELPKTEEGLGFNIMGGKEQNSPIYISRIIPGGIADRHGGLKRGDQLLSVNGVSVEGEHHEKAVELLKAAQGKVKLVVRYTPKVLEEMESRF

T2: SNTG1, Q9NSN8
T2 sequence (Q9NSN8 52-150, limits assumed, looked up): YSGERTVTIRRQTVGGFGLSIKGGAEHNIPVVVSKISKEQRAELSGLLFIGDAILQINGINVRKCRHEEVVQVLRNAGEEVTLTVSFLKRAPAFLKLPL

T3: TIAM2, Q8IVF5
T3 sequence (Q8IVF5 885-986, limits assumed, looked up): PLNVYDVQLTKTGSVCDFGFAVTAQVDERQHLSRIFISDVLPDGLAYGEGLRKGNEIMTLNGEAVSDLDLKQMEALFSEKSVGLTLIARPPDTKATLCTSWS

T4: ARHGEF11, O15085
T4 sequence (O15085 42-136, limits assumed, looked up): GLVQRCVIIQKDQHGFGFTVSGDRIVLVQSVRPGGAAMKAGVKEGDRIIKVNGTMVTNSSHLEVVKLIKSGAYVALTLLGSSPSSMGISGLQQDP

T5: DFNB31_3, Q9P202
T5 sequence (Q9P202 811-907, limits assumed, looked up): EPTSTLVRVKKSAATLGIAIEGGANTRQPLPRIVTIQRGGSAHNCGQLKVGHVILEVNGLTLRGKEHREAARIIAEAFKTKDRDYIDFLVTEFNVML

T6: RHPN1, Q8TCX5
T6 sequence (Q8TCX5 508-602, limits assumed, looked up): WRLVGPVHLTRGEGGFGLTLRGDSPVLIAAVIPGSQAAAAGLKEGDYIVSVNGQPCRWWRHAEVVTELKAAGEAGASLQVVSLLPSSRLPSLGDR

T7: SNTG2, Q9NY99
T7 sequence (Q9NY99 68-166, limits assumed, looked up): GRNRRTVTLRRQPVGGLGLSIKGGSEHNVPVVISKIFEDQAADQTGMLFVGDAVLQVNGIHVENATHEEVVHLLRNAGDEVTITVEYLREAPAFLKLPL

T8: GRIP1_3, Q9Y3R0
T8 sequence (Q9Y3R0 247-346, limits assumed, looked up): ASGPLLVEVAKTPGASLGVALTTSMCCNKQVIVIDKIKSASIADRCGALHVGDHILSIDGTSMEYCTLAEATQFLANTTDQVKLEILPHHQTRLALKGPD

T9: DFNB31_1, Q9P202
T9 sequence (Q9P202 135-233, limits assumed, looked up): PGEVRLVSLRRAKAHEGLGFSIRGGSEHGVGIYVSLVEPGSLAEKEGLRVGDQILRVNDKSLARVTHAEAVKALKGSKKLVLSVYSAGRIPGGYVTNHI

T10: DVL3, Q92997
T10 sequence (Q92997 244-331, limits assumed, looked up): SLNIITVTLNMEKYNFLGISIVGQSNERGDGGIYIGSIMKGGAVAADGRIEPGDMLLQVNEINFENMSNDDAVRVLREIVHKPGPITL

T11: RAPGEF6, Q8TEU7
T11 sequence (Q8TEU7 525-625, limits assumed, looked up): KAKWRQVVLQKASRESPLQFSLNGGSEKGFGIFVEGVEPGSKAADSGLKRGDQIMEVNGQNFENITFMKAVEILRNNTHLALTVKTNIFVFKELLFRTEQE


Tests used:
Assay in all cases: holdup assay
Set-up in all cases: key: below the threshold = too weak to quantify, mostly under pKd 3.1 to 4
Conditions in all cases: plain residues with an end cap or a label only (N-terminal biotin on a linker: ado-ado)
FRMPD2_2, Q68DX3 = molecular target: FRMPD2_2, Q68DX3
Sequence of FRMPD2_2, Q68DX3 (Q68DX3 944-1038): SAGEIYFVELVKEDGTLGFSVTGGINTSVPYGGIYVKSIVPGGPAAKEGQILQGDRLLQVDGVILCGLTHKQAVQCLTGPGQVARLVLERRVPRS

HTRA1, Q92743 = molecular target: HTRA1, Q92743
Sequence of HTRA1, Q92743 (Q92743 360-477): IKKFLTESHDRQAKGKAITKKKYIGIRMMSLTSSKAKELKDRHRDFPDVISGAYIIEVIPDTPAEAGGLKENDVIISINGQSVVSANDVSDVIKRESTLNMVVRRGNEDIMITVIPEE

LIN7C, Q9NUP9 = molecular target: T1, LIN7C, Q9NUP9
DLG4_2, P78352 = molecular target: DLG4_2, P78352
Sequence of DLG4_2, P78352 (P78352 155-259): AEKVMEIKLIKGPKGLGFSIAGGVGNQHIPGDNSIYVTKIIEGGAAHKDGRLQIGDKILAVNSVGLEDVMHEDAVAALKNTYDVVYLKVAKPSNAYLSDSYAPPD

SNTG1, Q9NSN8 = molecular target: T2, SNTG1, Q9NSN8
PARD3_3, Q8TEW0 = molecular target: PARD3_3, Q8TEW0
Sequence of PARD3_3, Q8TEW0 (Q8TEW0 582-685): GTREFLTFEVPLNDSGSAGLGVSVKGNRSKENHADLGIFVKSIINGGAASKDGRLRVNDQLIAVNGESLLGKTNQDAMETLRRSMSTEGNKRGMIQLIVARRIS

Inadl_8, Q8NI35 = molecular target: Inadl_8, Q8NI35
Sequence of Inadl_8, Q8NI35 (Q8NI35 1425-1530): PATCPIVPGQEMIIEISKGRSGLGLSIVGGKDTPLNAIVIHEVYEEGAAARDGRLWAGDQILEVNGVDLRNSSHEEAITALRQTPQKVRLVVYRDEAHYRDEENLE

TIAM2, Q8IVF5 = molecular target: T3, TIAM2, Q8IVF5
LIMK2, P53671 = molecular target: LIMK2, P53671
Sequence of LIMK2, P53671 (P53671 143-248): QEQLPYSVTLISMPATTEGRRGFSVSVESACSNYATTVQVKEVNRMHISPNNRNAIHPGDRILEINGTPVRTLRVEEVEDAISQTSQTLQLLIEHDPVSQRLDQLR

GRIP2_3, Q9C0E4 = molecular target: GRIP2_3, Q9C0E4
Sequence of GRIP2_3, Q9C0E4 (Q9C0E4 238-339): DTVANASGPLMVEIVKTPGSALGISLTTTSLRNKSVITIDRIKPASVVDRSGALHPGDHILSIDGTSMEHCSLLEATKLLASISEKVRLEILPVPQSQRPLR

DLG1_3, Q12959 = molecular target: DLG1_3, Q12959
Inadl_2, Q8NI35 = molecular target: Inadl_2, Q8NI35
Sequence of Inadl_2, Q8NI35 (Q8NI35 238-335): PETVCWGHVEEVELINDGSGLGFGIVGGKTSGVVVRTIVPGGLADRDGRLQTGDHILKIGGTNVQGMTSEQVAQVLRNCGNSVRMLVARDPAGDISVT

ARHGEF11, O15085 = molecular target: T4, ARHGEF11, O15085
DFNB31_3, Q9P202 = molecular target: T5, DFNB31_3, Q9P202
RHPN1, Q8TCX5 = molecular target: T6, RHPN1, Q8TCX5
GRIP2_4, Q9C0E4 = molecular target: GRIP2_4, Q9C0E4
Sequence of GRIP2_4, Q9C0E4 (Q9C0E4 446-548): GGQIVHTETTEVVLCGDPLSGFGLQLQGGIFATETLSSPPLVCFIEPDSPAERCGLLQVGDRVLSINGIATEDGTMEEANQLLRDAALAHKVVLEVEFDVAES

DLG1_1, Q12959 = molecular target: DLG1_1, Q12959
SNTG2, Q9NY99 = molecular target: T7, SNTG2, Q9NY99
DLG2_2, Q15700 = molecular target: DLG2_2, Q15700
Sequence of DLG2_2, Q15700 (Q15700 189-283): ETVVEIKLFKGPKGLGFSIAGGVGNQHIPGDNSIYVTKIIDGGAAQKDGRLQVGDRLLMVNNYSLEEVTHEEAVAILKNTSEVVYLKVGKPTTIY

PDZRN4_1, Q6ZMN7 = molecular target: PDZRN4_1, Q6ZMN7
Sequence of PDZRN4_1, Q6ZMN7 (Q6ZMN7 213-318): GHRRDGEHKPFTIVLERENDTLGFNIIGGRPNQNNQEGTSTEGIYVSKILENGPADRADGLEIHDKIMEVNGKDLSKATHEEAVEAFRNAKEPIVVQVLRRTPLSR

IL16_1, Q14005 = molecular target: IL16_1, Q14005
Sequence of IL16_1, Q14005 (Q14005 210-306): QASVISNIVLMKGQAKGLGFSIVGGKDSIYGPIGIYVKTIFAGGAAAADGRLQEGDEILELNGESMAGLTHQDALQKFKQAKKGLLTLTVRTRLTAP

GRIP1_3, Q9Y3R0 = molecular target: T8, GRIP1_3, Q9Y3R0
DFNB31_1, Q9P202 = molecular target: T9, DFNB31_1, Q9P202
MAGI2_3, Q86UL8 = molecular target: MAGI2_3, Q86UL8
Sequence of MAGI2_3, Q86UL8 (Q86UL8 600-682): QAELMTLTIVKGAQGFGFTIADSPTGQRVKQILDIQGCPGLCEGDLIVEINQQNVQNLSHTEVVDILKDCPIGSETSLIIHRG

DVL3, Q92997 = molecular target: T10, DVL3, Q92997
RAPGEF6, Q8TEU7 = molecular target: T11, RAPGEF6, Q8TEU7
DLG5_1, Q8TDM6 = molecular target: DLG5_1, Q8TDM6
Sequence of DLG5_1, Q8TDM6 (Q8TDM6 617-713): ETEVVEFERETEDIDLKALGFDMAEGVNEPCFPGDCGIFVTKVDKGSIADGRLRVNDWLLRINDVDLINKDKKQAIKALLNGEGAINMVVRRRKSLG

| pKd (FRMPD2_2, Q68DX3) | pKd (HTRA1, Q92743) | pKd (LIN7C, Q9NUP9) | pKd (DLG4_2, P78352) | pKd (SNTG1, Q9NSN8) | pKd (PARD3_3, Q8TEW0) | pKd (Inadl_8, Q8NI35) | pKd (TIAM2, Q8IVF5) | pKd (LIMK2, P53671) | pKd (GRIP2_3, Q9C0E4) | pKd (DLG1_3, Q12959) | pKd (Inadl_2, Q8NI35) | pKd (ARHGEF11, O15085) | pKd (DFNB31_3, Q9P202) | pKd (RHPN1, Q8TCX5) | pKd (GRIP2_4, Q9C0E4) | pKd (DLG1_1, Q12959) | pKd (SNTG2, Q9NY99) | pKd (DLG2_2, Q15700) | pKd (PDZRN4_1, Q6ZMN7) | Binder | further results |
| --- | --- | --- | --- | --- | --- | --- | --- | --- | --- | --- | --- | --- | --- | --- | --- | --- | --- | --- | --- | --- | --- |
| 5.22 | 3.65 | 4.57 | 4.97 | 5.43 | 3.64 | below the threshold | below the threshold | below the threshold | below the threshold | 3.68 | below the threshold | 4.55 | 3.92 | 4.77 | below the threshold | 4.51 | 4.8 | 4.71 | 4.7 | IGHEDLETAV [DGKI, O75912] | pKd (IL16_1, Q14005): 4.26; pKd (GRIP1_3, Q9Y3R0): below the threshold; pKd (DFNB31_1, Q9P202): 4.79; pKd (MAGI2_3, Q86UL8): 4.61; pKd (DVL3, Q92997): below the threshold; pKd (RAPGEF6, Q8TEU7): below the threshold; pKd (DLG5_1, Q8TDM6): below the threshold |
| below the threshold | 4.14 | below the threshold | below the threshold | below the threshold | below the threshold | 3.48 | below the threshold | below the threshold | below the threshold | 3.72 | below the threshold | 3.6 | below the threshold | below the threshold | below the threshold | below the threshold | 3.72 | below the threshold | 3.89 | PDSYHRRDFW [U2AF2, P26368] | pKd (IL16_1, Q14005): below the threshold; pKd (GRIP1_3, Q9Y3R0): below the threshold; pKd (DFNB31_1, Q9P202): 3.57; pKd (MAGI2_3, Q86UL8): below the threshold; pKd (DVL3, Q92997): below the threshold; pKd (RAPGEF6, Q8TEU7): below the threshold; pKd (DLG5_1, Q8TDM6): below the threshold |
